Test results from patent US20240398906A1.

How the values were obtained:
[1] = biological target: recombinant catalytic domain of human LOX (169-417) (human) (UniProt P28300); test: ELISA, plate coated with LOX catalytic domain, detection with anti-human peroxidase antibody
[2] = biological target: endogenous HSP70 from the mouse Ret melanoma cell line (mouse) (UniProt Q61696); test: cell-based or functional assay
recombinant HSP70 = recombinant HSP70 (UniProt P0DMV8); test: ELISA, plate coated with recombinant HSP70, detection with anti-human peroxidase antibody
Chain of recombinant HSP70 (P0DMV8 whole entry): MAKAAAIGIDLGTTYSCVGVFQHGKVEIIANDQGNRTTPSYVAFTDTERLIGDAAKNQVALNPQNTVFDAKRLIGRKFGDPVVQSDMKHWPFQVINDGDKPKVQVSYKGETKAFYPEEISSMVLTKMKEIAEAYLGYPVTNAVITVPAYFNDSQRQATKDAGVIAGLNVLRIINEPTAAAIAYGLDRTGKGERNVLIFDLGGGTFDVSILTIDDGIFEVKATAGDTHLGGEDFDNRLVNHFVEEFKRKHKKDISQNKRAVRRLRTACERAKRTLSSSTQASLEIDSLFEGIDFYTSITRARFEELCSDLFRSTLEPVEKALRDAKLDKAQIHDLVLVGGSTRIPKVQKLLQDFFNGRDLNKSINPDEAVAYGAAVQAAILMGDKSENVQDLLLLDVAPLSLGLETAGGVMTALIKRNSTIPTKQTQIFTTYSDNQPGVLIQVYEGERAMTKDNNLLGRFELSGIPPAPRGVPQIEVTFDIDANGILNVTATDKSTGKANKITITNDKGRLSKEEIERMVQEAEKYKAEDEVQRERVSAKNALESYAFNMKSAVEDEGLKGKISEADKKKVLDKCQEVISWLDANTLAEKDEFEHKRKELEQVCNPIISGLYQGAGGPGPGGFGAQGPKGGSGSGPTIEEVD

Chain of recombinant catalytic domain of human LOX (169-417) (human) (P28300 169-417 limits assumed): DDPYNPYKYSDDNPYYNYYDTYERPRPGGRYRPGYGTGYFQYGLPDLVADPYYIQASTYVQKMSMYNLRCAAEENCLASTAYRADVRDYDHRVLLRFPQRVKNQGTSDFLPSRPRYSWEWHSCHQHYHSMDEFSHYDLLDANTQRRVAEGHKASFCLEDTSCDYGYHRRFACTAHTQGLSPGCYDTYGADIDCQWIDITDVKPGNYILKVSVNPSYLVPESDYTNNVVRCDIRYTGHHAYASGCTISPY
Chain of endogenous HSP70 from the mouse Ret melanoma cell line (mouse) (Q61696 2-641): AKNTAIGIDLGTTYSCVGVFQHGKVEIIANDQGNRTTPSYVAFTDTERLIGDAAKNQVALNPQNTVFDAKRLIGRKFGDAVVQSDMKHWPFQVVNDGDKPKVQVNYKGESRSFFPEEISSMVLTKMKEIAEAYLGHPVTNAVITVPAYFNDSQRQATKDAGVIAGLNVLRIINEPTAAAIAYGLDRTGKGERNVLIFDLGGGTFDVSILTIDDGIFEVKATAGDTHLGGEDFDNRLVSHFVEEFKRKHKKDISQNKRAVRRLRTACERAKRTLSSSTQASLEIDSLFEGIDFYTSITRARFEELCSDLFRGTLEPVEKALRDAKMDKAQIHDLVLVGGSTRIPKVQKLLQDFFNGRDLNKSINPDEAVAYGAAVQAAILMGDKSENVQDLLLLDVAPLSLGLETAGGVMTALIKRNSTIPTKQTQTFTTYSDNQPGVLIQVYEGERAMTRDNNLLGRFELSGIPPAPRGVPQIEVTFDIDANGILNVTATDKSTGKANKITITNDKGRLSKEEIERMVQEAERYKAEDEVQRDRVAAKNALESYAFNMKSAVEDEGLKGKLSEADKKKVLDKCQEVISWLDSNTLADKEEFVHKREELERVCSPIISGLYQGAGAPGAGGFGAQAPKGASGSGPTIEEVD

EC50 [1]: 58 nM | ATPase activity of HSP70 in the culture media of Ret-melanoma cells (decrease against Fc) [2]: 18% | EC50 (recombinant HSP70): 57 nM
Substance: AS2 (non-glycosylated LOX-PP fused to human IgG1 Fc) (Fc fusion)
